According to paper PMC6560085:

Tests used:
GST-TARDBP (TDP-43) [1] = molecular target: T1, GST-TARDBP (TDP-43) (human, UniProt Q13148 1-414); assay: EMSA; settings: protein: recombinant; tags: N-terminal GST (pGEX-4T-1); label: 3' biotin; single strand
GST-TARDBP (TDP-43) [2] = molecular target: T1, GST-TARDBP (TDP-43); assay: EMSA; 2 ug protein; settings: protein: recombinant; tags: N-terminal GST (pGEX-4T-1); label: 3' biotin; single strand
GST-TARDBP (TDP-43) [3] = molecular target: T1, GST-TARDBP (TDP-43); assay: EMSA; dose dependent; supershifted by anti-TARDBP (Fig. 6d); settings: protein: recombinant; tags: N-terminal GST (pGEX-4T-1); label: 3' biotin; single strand
GST-TARDBP (TDP-43) [4] = molecular target: T1, GST-TARDBP (TDP-43); assay: competition; 0-200 fold unlabeled competitor; settings: protein: recombinant; tags: N-terminal GST (pGEX-4T-1); single strand
GST-TARDBP (TDP-43) [5] = molecular target: T1, GST-TARDBP (TDP-43); assay: EMSA; 2 ug protein; binding unaffected; settings: protein: recombinant; tags: N-terminal GST (pGEX-4T-1); label: 3' biotin; single strand

T1 sequence (Q13148 whole entry): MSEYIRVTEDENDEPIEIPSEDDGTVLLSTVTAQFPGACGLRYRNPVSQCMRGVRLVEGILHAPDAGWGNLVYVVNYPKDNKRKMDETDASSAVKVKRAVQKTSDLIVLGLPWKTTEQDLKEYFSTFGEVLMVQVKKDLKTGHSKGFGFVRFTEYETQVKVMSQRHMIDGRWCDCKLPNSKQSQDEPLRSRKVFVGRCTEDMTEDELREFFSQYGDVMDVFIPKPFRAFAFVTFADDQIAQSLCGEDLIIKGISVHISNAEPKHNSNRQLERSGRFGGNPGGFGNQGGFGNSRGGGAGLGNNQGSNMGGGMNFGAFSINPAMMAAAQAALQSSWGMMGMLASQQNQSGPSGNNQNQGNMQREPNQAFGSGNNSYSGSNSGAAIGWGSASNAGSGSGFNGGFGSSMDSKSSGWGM

Q: Does AAAGTTGCATGGTGCTGGTGAACA (ssDNA) [fragment s4] bind (GST-TARDBP (TDP-43) [1])?
A: no binding

Q: Does CTGGTGAACAGACCAATTTATGCCTACAGCCTCCTAGTACAAAGAC (ssDNA) [AS probe 2 (adjacent)] bind (GST-TARDBP (TDP-43) [2])?
A: no binding

Q: Does GGTGAAAAAGTTGCATGGTGCTGGTGAA (ssDNA) [fragment s2] bind (GST-TARDBP (TDP-43) [1])?
A: no binding

Q: Does CAGAGGTGAAAAAGTTGCATGGTG (ssDNA) [fragment s3] bind (GST-TARDBP (TDP-43) [1])?
A: no binding

Q: Does ATGAGATGATTAGGCAGAGGTGAAAAAGTTGCATGGTGCTGGTGAA (ssDNA) [AS probe 1 (WT, nt1804-1849)] bind (GST-TARDBP (TDP-43) [3])?
A: binds

Q: Does ATGAGATGATTAGGCAGAGGTGAAAAAGTTGCATGGTGCTGGTGAA (ssDNA) [AS probe 1 unlabeled competitor] bind (GST-TARDBP (TDP-43) [4])?
A: binds

Q: Does ATGAGATGATTAAGCATAGGCGAAAAAGTTGCATGGTGCTGGTGAA (ssDNA) [AS Mutant 2] bind (GST-TARDBP (TDP-43) [2])?
A: no binding

Q: Does ATCAGACGACTAGGCAGAGGTGAAAAAGTTGCATGGTGCTGGTGAA (ssDNA) [AS Mutant 1] bind (GST-TARDBP (TDP-43) [2])?
A: no binding

Q: Does ATGAGATGATTAGGCAGAGGTGAAAAAGTTGCATAGTACTCGTGAA (ssDNA) [AS Mutant 5] bind (GST-TARDBP (TDP-43) [2])?
A: no binding

Q: Does ATGAGATGATTAGGCAGAGGTGCTAGCGTTGCATGGTGCTGGTGAA (ssDNA) [AS Mutant 3 (central A5 repeat mutated)] bind (GST-TARDBP (TDP-43) [5])?
A: binds

Q: Does ATGAGATGATTAGGCAGAGGTGAAAAAGCTACATAGTACTGGTGAA (ssDNA) [AS Mutant 4] bind (GST-TARDBP (TDP-43) [2])?
A: no binding

Q: Does ATGAACATGAGATGATTAGGCAGAGGTG (ssDNA) [fragment s1] bind (GST-TARDBP (TDP-43) [1])?
A: no binding
